Experiment [1] concerns the target T1, OB-R (Homo sapiens, UniProt P48357).
T1 construct: After confirming via Western that the primary EEC and ESC and endometrial cell lines utilized herein had OB-R; endogenous in cells; host or cells: primary human EEC and ESC; Ishikawa (ECACC 9832301) and HES cell lines
T1 sequence (P48357 22-1165): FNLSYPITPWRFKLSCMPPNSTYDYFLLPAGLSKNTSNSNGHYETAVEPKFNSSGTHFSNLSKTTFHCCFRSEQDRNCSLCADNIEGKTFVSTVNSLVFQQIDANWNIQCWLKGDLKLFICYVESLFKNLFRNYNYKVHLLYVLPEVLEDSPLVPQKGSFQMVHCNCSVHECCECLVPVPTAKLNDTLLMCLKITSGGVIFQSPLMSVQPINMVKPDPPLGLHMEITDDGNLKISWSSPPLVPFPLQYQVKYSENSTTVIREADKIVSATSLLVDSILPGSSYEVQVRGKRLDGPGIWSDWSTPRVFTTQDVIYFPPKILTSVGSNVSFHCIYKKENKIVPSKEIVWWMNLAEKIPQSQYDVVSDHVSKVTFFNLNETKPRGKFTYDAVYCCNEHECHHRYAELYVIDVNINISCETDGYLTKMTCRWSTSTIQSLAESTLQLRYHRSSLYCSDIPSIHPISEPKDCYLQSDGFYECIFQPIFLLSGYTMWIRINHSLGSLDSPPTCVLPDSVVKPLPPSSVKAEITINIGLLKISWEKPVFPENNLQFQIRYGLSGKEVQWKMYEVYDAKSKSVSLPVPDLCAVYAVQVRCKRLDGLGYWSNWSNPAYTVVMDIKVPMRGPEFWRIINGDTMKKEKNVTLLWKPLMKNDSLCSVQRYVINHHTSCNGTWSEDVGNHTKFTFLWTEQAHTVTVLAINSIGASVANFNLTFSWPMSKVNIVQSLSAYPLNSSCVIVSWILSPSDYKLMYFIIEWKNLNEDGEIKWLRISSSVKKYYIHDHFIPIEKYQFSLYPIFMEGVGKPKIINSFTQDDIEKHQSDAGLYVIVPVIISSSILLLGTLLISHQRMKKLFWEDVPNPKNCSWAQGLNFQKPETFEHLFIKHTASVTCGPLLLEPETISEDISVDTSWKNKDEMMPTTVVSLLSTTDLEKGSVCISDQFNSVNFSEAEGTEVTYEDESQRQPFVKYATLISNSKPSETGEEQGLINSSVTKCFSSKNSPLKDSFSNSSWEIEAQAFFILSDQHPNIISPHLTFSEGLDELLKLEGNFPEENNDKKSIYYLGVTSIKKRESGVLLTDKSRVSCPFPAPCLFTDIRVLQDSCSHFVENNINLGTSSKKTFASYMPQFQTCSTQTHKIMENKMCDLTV
In words: LIF-R levels in human endometrial cells (immunoprecipitation/Western blot). The following applies: for effect on leptin-induced increase of LIF-R levels: leptin 62 nM, peptide 300 nM, 24 h; for leptin-induced expression of LIF-R: leptin 3-62 nM. It is filed as cell-based. The method, then:
(§1) Primary human endometrial cells (ESC and EEC) were cultured for 5-9 days in DMEM-F12 medium containing 5% fetal bovine serum (FBS), 5 μg/ml insulin, 1% amphopthericin B, 100 μg/ml streptomycin and 100 U/ml penicillin until they were 80% confluent. Two types of endometrial epithelial cell lines, HES (originally derived from a benign proliferative endometrium) and Ishikawa (human endometrial epithelial adenocarcinoma, ECACC 9832301, Wiltshire, England) were cultured under the same conditions described above. The cells were washed twice with 100 mM phosphate saline buffer (PBS), pH 7.2 and cultured for additional 2 days in the same medium but without FBS (basal medium). Cells were washed as described before and cultured in basal medium containing leptin (0, 3, 10 or 62 nM) or IL-1β (0.6, 3 and 10 nM).
(§2) The anti-OB-R antibody (10 and 20 μg/ml) and LPA-2, a specific inhibitor of OB-R (3, 120, 300 nM or 30 μM) were used to assess whether leptin-induced effects were regulated primarily by the OB-R. Non-specific species-matched IgGs to the OB-R antibody and a scrambled version of LPA-2 (LPA-2Sc) served as negative controls (Gonzalez and Leavis, Endocrine 21: 185-195 (2003)). Inhibitors of IL-1R were used (monoclonal antibody anti-IL-1R tl and IL-1Ra) to assess whether leptin activated IL-1 induced signaling pathways or just activated similar components responsible for LIF/LIF-R expression. Treatment with the cytokine, inhibitor or the two combined was implemented for 5, 15, 30 and 60 min, and 24 and 48 h. The cells were prepared for Western blot analysis. The conditioned media was collected, lyophilized and stored at −80° C. until analysis for LIF, IL-1β and IL-1Ra by ELISA could be performed. Duplicate wells were run for each treatment and the experiments repeated at least three times with different cell preparations.
(§3) Endometrial cells were washed with ice-cold PBS and lysed by homogenization on ice with lysis buffer A [[…] Tris, pH 7.4, containing 137 nM NaCl, 2 mM EDTA, 10% glycerol, 50 mM β-glycerophosphate, 1% Nonidet P-40 and a mixture of proteases and phosphatase inhibitors composed of 100 μM antipain, 0.1 mg/ml trypsin inhibitor, protease inhibitor cocktail 1:50 (Sigma), 50 nM NaF, 2 mM phenyl-methylsulfonyl fluoride, and 2 mM sodium orthovanadate]. Cellular lysates were centrifuged at 2400 g at 4° C. for 10 min. For nuclear lysates the cells were scraped from the culture plates and homogenized with lysis buffer B (10 nM Tris, pH 7.4, 0.25 M sucrose, 0.1 mM EDTA containing the same mixture of protease and phosphatase inhibitors as buffer A). Protein concentrations were determined using the Bradford protein assay (BioRad Laboratories Inc., Hercules, Calif.).
(§4) 30 μg of protein from nuclear or cellular lysates were incubated in ependorf tubes containing 0.5 μg of primary antibodies (anti-LIF-R, OB-R, STAT3 and p-STAT3 diluted in buffer A) for 2 h at 4° C. under constant stirring. The immuno-complexes were incubated with 20 μl of Protein G-Agarose (Amersham Pharmacia Biotech) diluted 1:1 with buffer A for a 2 additional hours under constant stirring. The beads were centrifuged for 1 min at 1000 g and washed with buffer A containing 0.5 M NaCl followed by a final wash with buffer A.
Cellular lysates and their immunoprecipitates containing 10-30 μg of protein plus Laemmli buffer (1:1) were incubated at 95° C. for 5 min. Electrophoresis was performed at 220 V for 5 min followed by 130 V for 45 min (BioRad, electrophoresis apparatus) on 7.5% (for STAT3, p-STAT3, LIF-R and IL-1R tl) and 10% (for OB-R) SDS-PAGE gels. Nuclear lysates were also used to detect p-STAT3. Electroblotting onto 0.2 μm nitrocellulose membranes was performed at 22 V overnight at 4° C. in 48 nM Tris-39 nM glycine buffer containing 0.037% SDS and 20% methanol. […]
(Immunoblotting shows a protein as a band on a membrane.)

Experiment [2] has as its target T1, OB-R. In words: p-STAT3 levels in human endometrial cells (Western blot). It is filed as cell-based. The following applies: for effect on leptin-induced increase of p-STAT3 levels: peptide 300 nM. The method, then: as §1, §2, §3, §4
Cellular lysates and their immunoprecipitates containing 10-30 μg of protein plus Laemmli buffer (1:1) were incubated at 95° C. for 5 min. […]

With “VAEVLNRSDLIQRISFSLDLNNSKLH [LPA-2Sc, scrambled version of LPA-2, negative control, reference compound]”, the “effect on leptin-induced increase of LIF-R levels” value in experiment [1] (Ishikawa cells) is recorded as “had no effect on LIF-R levels”. Moreover, the “effect on leptin-induced increase of p-STAT3 levels” value in experiment [2] (Ishikawa cells, leptin 62 nM) was “had no effect”.
Consider “leptin: human recombinant leptin (R&D Systems), OB-R ligand used as stimulus”, for which the “leptin-induced expression of LIF-R” value is given as 1.3-2 fold in experiment [1] (HES cells), 1.5-3 fold in experiment [1] (Ishikawa cells), 1.7-8 fold in experiment [1] (primary EEC) and 1.4-3.2 fold in experiment [1] (primary ESC). Besides, in experiment [2] (Ishikawa cells, leptin 62 nM), the “p-STAT3 levels over non-treated controls after leptin” value was “increased the levels of p-STAT3”. The “p-STAT3 levels after leptin” value in experiment [2] (primary EEC, leptin 10 and 62 nM, 5 min, nuclear extracts) is “increase in the levels of p-STAT3”.
“SRNVIQISNDLENLRDLLHVLAFSKS [LPA-2, 26 amino acid peptide, residues 70-95 of helix III of the human leptin molecule; leptin peptide antagonist]”: the “effect on leptin-induced increase of LIF-R levels” value in experiment [1] (Ishikawa cells) is given as “reduced the leptin-induced increase”. Also, the “p-STAT3 level compared to non-treated control cells” value in experiment [2] (Ishikawa cells, LPA-2 treatment) is given as “decrease level of p-STAT3”. The “effect on leptin-induced increase of p-STAT3 levels” value in experiment [2] (Ishikawa cells, leptin 62 nM) is on record as “inhibited the leptin-induced increase”.

The values are drawn from patent US8058228B2, “Leptin peptide antagonists” (Boston Biomedical Research Institute, priority 2004, dated 2011).
